The data set has as its target 15N-labeled AR DBD (human, UniProt P10275 558-648). Kind of data set: NMR.

Chain of 15N-labeled AR DBD (P10275 558-648): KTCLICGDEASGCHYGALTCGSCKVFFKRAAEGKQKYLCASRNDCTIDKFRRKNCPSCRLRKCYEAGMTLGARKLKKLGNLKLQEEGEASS

B1: ADR3 DNA duplex (NMR) (dsDNA)
DNA 1: CCAGAACATCAAGAACAC
DNA 2: GTGTTCTTGATGTTCTGG
With B1, the binding result is “binds”.

(Values after article PMC6410682.)
